Legend:
[1] = target: Lck protein tyrosine kinase (transfected in 293T cells) (UniProt P06239 2-509, limits assumed); test: co-immunoprecipitation from transfected 293T cells
Experimental: Figure 4B: FIG. 4(B) is a representative immunoblot, showing association of LAT with signaling molecules in 293T cells. FLAG-tagged LAT was cotransfected with pCEFL/HA-Grb2, pSRα/Grap-myc, pcDNA3/HA-p85 and pcDNA3/PLC-γ1 in the absence or presence of ZAP-70 and Lck PTKs. Brij lysates of transfected 293T cells were immunoprecipitated with anti-FLAG, and association of LAT with tested proteins was determined by blotting with specific antibodies.
In this example, association of LAT with Grb2, Grap, PI3K and PLC-γ1 is shown in 293T cells. To investigate the association of LAT with critical signaling molecules, FLAG-tagged LAT in the pcDNA3 vector was cotransfected in 293T cells with plasmids expressing HA-tagged Grb2, Myc-tagged Grap, HA-tagged p85 subunit of PI3K or PLC-γ1, in the presence or absence of both ZAP-70 and Lck. LAT was immunoprecipitated with anti-FLAG antibody, and associated proteins were detected by blotting with specific antibodies. […] When LAT and the two PTKs were coexpressed with HA-tagged Grb2, both endogenous Grb2 and HA-Grb2 bound to phosphorylated LAT (HA-Grb2 migrates more slowly than endogenous Grb2 on SDS-PAGE). Myc-tagged Grap, the Grb2-like protein, when coexpressed with LAT in the presence of the two PTKs, also associated with phosphorylated LAT. […] HA-tagged p85 or PLC-γ1 also associated with phosphorylated LAT. […]

[2] = target: T1, p85 subunit of PI3K, endogenous, Jurkat T cells (human, UniProt P27986 2-724); test: anti-myc immunoprecipitation from C305-stimulated stable Jurkat transfectants, immunoblot
T1 construct: mature; also called p85 subunit of PI-3 kinase
Experimental: (§1) Exogenous LAT was immunoprecipitated with anti-myc antibody from cells either left unstimulated or stimulated with C305 (1:50). Samples were analyzed on SDS-PAGE and blotted with 4G10. The same membrane was also blotted with anti-PLC-γ1, anti-p85, anti-Grb2, anti-SOS, and anti-LAT after stripping.
(§2) Myc-tagged LAT was immunoprecipitated with anti-myc antibody from unstimulated or C305 stimulated transfectants. […] The myc-tagged LAT appears as a doublet as does endogenous LAT. […] In addition, mutations at Y171 and Y191 prevented the association of SLP-76, Vav and Cbl, but the 70 kDa tyrosine-phosphorylated protein remained associated with LAT. […] The association with SOS was also disrupted by the double Y to F mutations.

[3] = target: T2, Cbl, endogenous, Jurkat T cells (human, UniProt P22681 1-906, tyrosine phosphorylated in stimulated cells); test: as above
T2 construct: also called Cbl (120 kD); c-cbl
Experimental: as §1, §2

[4] = target: T3, Vav, endogenous, Jurkat T cells (human, UniProt P15498 1-845, tyrosine phosphorylated in stimulated cells); test: as above
T3 construct: also called Vav (100 kD)
T3 sequence (looked up): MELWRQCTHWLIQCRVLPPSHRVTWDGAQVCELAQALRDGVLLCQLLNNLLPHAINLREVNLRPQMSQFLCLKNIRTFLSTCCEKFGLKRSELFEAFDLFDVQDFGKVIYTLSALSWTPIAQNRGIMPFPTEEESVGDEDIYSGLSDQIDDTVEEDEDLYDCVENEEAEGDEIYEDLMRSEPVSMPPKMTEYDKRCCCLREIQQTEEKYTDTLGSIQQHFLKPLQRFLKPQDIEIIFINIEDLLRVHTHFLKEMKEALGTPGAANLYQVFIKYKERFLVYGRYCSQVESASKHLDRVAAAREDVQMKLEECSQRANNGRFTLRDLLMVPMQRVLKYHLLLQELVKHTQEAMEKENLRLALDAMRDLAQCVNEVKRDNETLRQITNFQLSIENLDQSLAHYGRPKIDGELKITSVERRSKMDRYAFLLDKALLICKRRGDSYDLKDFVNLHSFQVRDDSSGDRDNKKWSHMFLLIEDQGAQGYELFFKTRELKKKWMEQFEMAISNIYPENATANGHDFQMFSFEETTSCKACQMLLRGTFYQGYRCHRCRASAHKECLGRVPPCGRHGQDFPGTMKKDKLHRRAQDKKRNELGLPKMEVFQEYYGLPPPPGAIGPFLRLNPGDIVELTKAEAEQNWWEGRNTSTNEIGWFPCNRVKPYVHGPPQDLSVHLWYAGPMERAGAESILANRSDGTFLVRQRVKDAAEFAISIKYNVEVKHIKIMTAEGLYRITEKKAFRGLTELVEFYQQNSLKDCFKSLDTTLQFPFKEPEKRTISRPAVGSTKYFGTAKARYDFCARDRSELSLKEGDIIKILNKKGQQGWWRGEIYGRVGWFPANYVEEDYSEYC
Experimental: as §1, §2

[5] = target: T4, SLP-76, endogenous, Jurkat T cells (human, UniProt Q13094 1-533, tyrosine phosphorylated in stimulated cells); test: as above
T4 construct: mature; also called 76 kD protein; SH2-domain Leukocyte Protein
T4 sequence (looked up): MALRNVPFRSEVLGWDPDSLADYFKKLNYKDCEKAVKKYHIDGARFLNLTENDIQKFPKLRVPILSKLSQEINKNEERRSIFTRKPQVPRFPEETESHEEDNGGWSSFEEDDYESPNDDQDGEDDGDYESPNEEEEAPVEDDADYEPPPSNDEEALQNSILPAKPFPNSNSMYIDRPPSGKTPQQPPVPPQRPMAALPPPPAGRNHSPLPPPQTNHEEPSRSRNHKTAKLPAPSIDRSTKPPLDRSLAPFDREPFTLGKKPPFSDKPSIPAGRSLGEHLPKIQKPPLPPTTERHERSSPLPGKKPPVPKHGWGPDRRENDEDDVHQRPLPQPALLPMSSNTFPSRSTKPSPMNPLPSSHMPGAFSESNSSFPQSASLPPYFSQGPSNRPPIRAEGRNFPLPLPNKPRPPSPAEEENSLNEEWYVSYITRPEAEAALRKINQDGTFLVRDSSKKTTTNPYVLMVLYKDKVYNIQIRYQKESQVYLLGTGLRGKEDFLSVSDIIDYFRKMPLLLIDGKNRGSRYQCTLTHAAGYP
Experimental: as §1, §2

[6] = target: T5, Grb2, endogenous (293T cells and Jurkat T cells) (human, UniProt P62993 1-217); test: as above
T5 construct: Endogenous protein of human cell lines; also called endogenous Grb2; Grb2 linker protein
Experimental: as §1, §2

Measured: binding result

T5 sequence (P62993 whole entry): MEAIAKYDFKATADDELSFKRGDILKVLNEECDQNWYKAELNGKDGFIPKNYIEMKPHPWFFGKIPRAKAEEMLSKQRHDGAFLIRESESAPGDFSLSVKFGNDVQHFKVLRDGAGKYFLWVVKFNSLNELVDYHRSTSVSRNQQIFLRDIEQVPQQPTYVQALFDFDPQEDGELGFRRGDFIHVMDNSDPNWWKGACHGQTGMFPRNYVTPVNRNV
T1 sequence (P27986 2-724): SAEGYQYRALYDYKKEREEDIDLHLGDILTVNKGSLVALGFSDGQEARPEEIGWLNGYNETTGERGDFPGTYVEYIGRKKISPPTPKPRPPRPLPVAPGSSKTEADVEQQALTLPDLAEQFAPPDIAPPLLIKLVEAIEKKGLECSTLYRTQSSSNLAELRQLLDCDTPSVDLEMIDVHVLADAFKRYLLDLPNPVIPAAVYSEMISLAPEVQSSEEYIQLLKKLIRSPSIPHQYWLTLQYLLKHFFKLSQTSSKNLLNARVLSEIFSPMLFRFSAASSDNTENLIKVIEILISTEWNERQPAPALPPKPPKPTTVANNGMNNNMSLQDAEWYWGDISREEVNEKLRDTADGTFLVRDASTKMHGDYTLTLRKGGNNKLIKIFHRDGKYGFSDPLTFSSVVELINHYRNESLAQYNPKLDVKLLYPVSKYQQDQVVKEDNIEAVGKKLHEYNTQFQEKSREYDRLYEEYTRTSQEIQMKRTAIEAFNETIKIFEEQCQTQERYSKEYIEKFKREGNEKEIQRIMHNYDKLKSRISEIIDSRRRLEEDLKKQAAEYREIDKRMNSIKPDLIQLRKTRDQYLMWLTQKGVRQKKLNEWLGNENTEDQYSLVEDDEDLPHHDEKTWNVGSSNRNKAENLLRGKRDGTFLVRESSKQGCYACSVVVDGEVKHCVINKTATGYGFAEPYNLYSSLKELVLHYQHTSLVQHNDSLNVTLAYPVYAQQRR
Lck protein tyrosine kinase (transfected in 293T cells), sequence (P06239 2-509 limits assumed): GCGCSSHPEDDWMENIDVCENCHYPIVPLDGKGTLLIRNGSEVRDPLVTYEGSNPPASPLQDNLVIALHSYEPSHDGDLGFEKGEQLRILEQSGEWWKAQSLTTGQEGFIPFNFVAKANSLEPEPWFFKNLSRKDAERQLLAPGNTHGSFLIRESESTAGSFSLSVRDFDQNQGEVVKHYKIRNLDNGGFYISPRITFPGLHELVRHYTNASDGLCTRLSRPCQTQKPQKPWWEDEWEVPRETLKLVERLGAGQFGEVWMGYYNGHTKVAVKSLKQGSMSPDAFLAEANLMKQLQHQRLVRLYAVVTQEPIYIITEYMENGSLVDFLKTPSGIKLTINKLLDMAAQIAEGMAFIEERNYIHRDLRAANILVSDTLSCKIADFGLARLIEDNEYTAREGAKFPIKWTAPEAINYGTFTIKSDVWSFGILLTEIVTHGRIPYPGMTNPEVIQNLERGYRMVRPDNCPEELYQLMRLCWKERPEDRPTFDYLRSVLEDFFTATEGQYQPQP

B1: FLAG-tagged LAT, tyrosine phosphorylated (co-expressed in 293T cells with Syk, or with ZAP-70 and Lck or Fyn) (other)
chain: MEEAILVPCVLGLLLLPILAMLMALCVHCHRLPGSYDSTSSDSLYPRGIQFKRPHTVAPWPPAYPPVTSYPPLSQPDLLPIPRSPQPLGGSHRTPSSRRDSDGANSVASYENEEPACEDADEDEDDYHNPGYLVVLPDSTPATSTAAPSAPALSTPGIRDSAFSMESIDDYVNVPESGESAEASLDGSREYVNVSQELHPGAAKTEPAALSSQEAEEVEEEGAPDYENLQELNDYKDDDDK
modifications: tyrosine phosphorylated by co-expressed PTKs; sites not mapped
notes: Made by replacing the Pst I/Cla I fragment of LAT with an oligonucleotide encoding FLAG; also called phosphorylated LAT
no binding: [1]

B2: myc-tagged mutant LAT (Y171/191F), stably expressed in Jurkat cells, C305 stimulated (other)
chain: MEEAILVPCVLGLLLLPILAMLMALCVHCHRLPGSYDSTSSDSLYPRGIQFKRPHTVAPWPPAYPPVTSYPPLSQPDLLPIPRSPQPLGGSHRTPSSRRDSDGANSVASYENEEPACEDADEDEDDYHNPGYLVVLPDSTPATSTAAPSAPALSTPGIRDSAFSMESIDDFVNVPESGESAEASLDGSREFVNVSQELHPGAAKTEPAALSSQEAEEVEEEGAPDYENLQELNSMEQKLISEEDLN
modifications: tyrosine phosphorylated upon stimulation at residues other than Y171 and Y191, less than WT
notes: also called mLAT
not listed: [1]
no binding: all other assays above

From US7118889 (US Dept. of Health and Human Services, dated 2006)
